US20260248939A1 (SYNAFFIX B V, published 2026)

Tests used:
[1] = biological target: T1, Human PTK7 (CCK4 protein, ECD, His Tag, Sino Biological) (human, UniProt Q13308 31-704); assay: ELISA: His-tagged PTK7 on nickel plate, ADC at 8 µg/mL (Example 25), goat anti-human IgG-HRP, TMB, absorbance at 652 nm, background-corrected
T1 construct: extracellular domain; Bought protein; also called hPTK7; HPTK7; not shown: His tag
T1 sequence (looked up): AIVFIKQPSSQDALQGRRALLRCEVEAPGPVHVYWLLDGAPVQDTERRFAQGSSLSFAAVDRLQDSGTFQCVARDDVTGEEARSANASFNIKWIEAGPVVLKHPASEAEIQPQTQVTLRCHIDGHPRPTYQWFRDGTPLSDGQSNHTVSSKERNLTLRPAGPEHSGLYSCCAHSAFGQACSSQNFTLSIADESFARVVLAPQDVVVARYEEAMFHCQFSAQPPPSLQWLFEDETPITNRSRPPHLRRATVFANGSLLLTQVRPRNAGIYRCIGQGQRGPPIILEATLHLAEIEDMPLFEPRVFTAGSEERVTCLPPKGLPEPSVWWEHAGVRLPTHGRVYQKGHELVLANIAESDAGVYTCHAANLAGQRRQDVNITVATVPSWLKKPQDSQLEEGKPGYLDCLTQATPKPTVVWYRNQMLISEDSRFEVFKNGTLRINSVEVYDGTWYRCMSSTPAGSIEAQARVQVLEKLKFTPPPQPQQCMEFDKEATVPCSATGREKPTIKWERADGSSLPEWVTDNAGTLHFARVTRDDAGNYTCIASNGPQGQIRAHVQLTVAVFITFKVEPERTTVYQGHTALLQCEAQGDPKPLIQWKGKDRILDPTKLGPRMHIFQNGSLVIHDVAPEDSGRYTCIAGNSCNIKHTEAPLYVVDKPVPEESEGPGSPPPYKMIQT

[2] = biological target: T2, Rat PTK7 (His Tag, Acro Biosystems) (rat, UniProt A0A8I6ALM9 40-713); assay: as above
T2 construct: Bought protein; also called rPTK7; not shown: His tag

[3] = biological target: T1, Human PTK7 (CCK4 protein, ECD, His Tag, …); assay: ELISA: His-tagged hPTK7 on nickel plate, ADC at 8 µg/mL (Example 25), goat anti-human IgG-HRP, TMB, absorbance at 652 nm, background-corrected
[4] = biological target: T3, cynomolgus PTK7 (CCK4 protein, ECD, His Tag, Sino Biological) (cynomolgus, UniProt A0A2K5VNI5 39-712); assay: ELISA: His-tagged PTK7 on nickel plate, ADC at 8 µg/mL (Example 25), goat anti-human IgG-HRP, TMB, absorbance at 652 nm, background-corrected
T3 construct: extracellular domain; Bought protein; also called cPTK7; cyno PTK7; not shown: His tag
T3 sequence: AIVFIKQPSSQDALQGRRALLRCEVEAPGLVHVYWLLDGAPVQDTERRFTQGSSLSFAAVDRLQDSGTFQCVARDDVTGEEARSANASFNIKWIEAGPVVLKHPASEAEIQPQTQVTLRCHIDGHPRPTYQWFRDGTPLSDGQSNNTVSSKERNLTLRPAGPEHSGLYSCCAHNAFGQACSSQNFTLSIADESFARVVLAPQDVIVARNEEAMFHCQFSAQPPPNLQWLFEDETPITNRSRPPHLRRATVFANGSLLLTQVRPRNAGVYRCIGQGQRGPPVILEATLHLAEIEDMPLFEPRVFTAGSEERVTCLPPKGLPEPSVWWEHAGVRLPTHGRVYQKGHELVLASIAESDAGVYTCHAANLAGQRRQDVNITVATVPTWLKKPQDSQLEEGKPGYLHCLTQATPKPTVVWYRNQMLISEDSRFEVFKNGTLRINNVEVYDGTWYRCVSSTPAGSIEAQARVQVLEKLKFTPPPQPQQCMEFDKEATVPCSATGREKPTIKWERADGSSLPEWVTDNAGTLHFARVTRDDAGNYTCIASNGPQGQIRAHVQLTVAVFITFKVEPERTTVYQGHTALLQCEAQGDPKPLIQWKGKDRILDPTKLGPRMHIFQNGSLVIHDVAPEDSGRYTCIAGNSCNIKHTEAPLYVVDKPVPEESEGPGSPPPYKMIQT

B1: 4D5-3 (antibody, human IgG1, kappa, V domains shown)
VH: QVQLVESGGGVVQPGRSLRLSCAASGFTFSSYAFHWVRQAPGKGLEWVAVISYDGSIKYYADSVKGRFTISRDNSKNTLYLQMNSLRAEDTAVYYCARTYYFDYWGQGTLVTVSS
VL: EIVLTQSPDFQSVTPKEKVTITCRASQSIGSSLHWYQQKPDQSPKLLIKYASQSFSGVPSRFSGSGSGTDFTLTINSLEAEDAAAYYCHQSSSLPITFGQGTRLEIKR
modifications: heavy-chain N-glycan trimmed to core GlcNAc, extended with 6-N3-GalNAc and clicked to BCN-HS-PEG2-HS-(va-PAB-Ex)2 (linker-drug 3, exatecan); average DAR 3.91
Q: What does the source list for B1?
A: binding result [1]: binds; binding result [2]: no binding (tested: 8 µg/mL)

B2: B12-3 (antibody, human IgG1, kappa, V domains shown)
VH: QVQLVQSGAEVKKPGASVKVSCQASGYRFSNFVIHWVRQAPGQRFEWMGWINPYNGNKEFSAKFQDRVTFTADTSANTAYMELRSLRSADTAVYYCARVGPYSWDDSPQDNYYMDVWGKGTTVIVSS
VL: EIVLTQSPGTLSLSPGERATFSCRSSHSIRSRRVAWYQHKPGQAPRLVIHGVSNRASGISDRFSGSGSGTDFTLTITRVEPEDFALYYCQVYGASSYTFGQGTKLERKR
notes: also called B12 (VI) conjugated with linker-drug 3; isotype control ADC
Q: Does B2 bind [3]?
A: Result: no binding (tested: 8 µg/mL)

B3: 12C6a-3 (antibody, human IgG1, kappa, V domains shown)
VH: VQLVQSGGGLVHPGGSLRLSCAGSGFTFSTYLMYWVRQAPGKTLEWVSAIGSGGDTYYADSVKGRFTISRDNAKNSLYLQMNSLRAEDMAVYYCARGLGYWGQGTLVTVSS
VL: DIQMTQSPSSLSASVGDRVTITCRASQGISSWLAWYQQKPEKAPKSLIYAASSLQSGVPSRFSGSGSGTDFTLTISSLQPEDFATYYCQQYNSYPYTFGQGTKLEIKR
modifications: heavy-chain N-glycan trimmed to core GlcNAc, extended with 6-N3-GalNAc and clicked to BCN-HS-PEG2-HS-(va-PAB-Ex)2 (linker-drug 3, exatecan); average DAR 3.90
notes: Antibody-drug conjugate of IgG 12C6a (V)
Q: Which results are given for B3?
A: binding result [1]: no binding (tested: 8 µg/mL); binding result [2]: no binding (tested: 8 µg/mL); binding result [4]: no binding (tested: 8 µg/mL)
